According to the RNAGym collection of RNA variant scans (doi:10.1073/pnas.2313332121):
Fewer inactive variants are shown than the library holds.

B1: TPR 5TU (parent)
chain: GGAUCUUCUCGAUCUAACAAAAAAGACAAAUCUGCCACAAAGCUUGAGAGCAUCUUCGGAUGCAGAGGCGGCAGCCUUCGGUGGCGCGAUAGCGCCAACGUUCUCAACUAUGACACGCAAAACGCGUGCUCCGUUGAAUGGAGUUUAUCAUG

Variants of: B1
Experiment: polymerase ribozyme fitness, log enrichment relative to wild type (log ratio); higher = more active; in vitro selection for triplet polymerase activity
Method in brief: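 Mutant libraries of each subunit of a heterodimeric triplet polymerase ribozyme were built by PCR and transcribed. Each library went through one round of in vitro selection in triplicate: annealing with biotinylated primer, partner subunit and triplets, frozen incubation at −7 °C, gel excision of extended constructs, streptavidin-bead capture and RT-PCR. Input and output libraries were Illumina-sequenced; only genotypes with ≥10 input reads and ≥1 read per output were kept. Fitness is log2(genotype enrichment/wild-type enrichment), using inverse-variance-weighted replicate averages.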

Variant | polymerase ribozyme fitness (log ratio)
GGAUCUUCUCGAUCUAACAAAAAAGACAAAUCUGCCACAAAGCUUGAGAGCAUGUUCGGAUGCAGUGGCGGCAGCCUUCGGUGGCGCGAUAGCGCCAACGUUCUCAACUAUGACACGCAAAACGCGUGCUCCGUUGGAUGGAGUUUAUCAUG | ≤ -4.2
GGAUCUUCUCGAUCUAACAAAAAAGACAAAUCUGCCACAAAGCUAGAGAGCAUCUUCGGAUGCAGAGGCGGCAGCAUUCGGUGGAGCGAUAGCGCCAACGUUCUCAACUAUGACACGCAAAACGCGUGCUCCGUUGAAUGGAGUUUAUCAUG | ≤ -4.2
GGAUCUUCUGGAUCUAACAAAAAAGACAAAUCUGCCGCAAAGCUUGAGAGGAUCUUCGGAUGCAGAGGCGGCAGCCUUCGGUGGCGCGAUAGCGCCAACGUUCUCAGCUAUGACACGCAAAACGCGUGCUCCGUUGAAUGGAGUCUAGCAUG | ≤ -4.2
GGAUCUUCUCGAUCUAACAAAAAAGACAAAUCUGUCACAAGGCUUGAGAGCAUCUUCGGAUGCAGAGACGGCAGCCUUCGGUGGCGCGAUAGCGCGACCGUUCUCAAGUAUGACACGCAAAACGCUUGCUCCGUCGAAUGGAGUUUAUCAUG | ≤ -4.2
GGAUCUUCUCGAUCUAACAAAAAAGACUAAUCUGCCACAAAGCUUGAGAGCAUCUUCAGAUGCAGAGGCGGCAGCCUUCGGUGGCGCCAUAGCGCCAACGUUCUCAACUAUGACACGCAAAACGCGUGCUCCAUUGAGUGGAUUUUAUCAUG | ≤ -4.2
GGAUCUUCUCGAUCUAACAAAAAAGACAAAUCUGUCACAAAGCUUGAGAGCAUCUUCGGAUGCAGAGGCGGCAGCCUUCGGUGGCGCGAUAGGGCCAACGUUCUCAACUAUGACACGCGAAACGCGUGCUCCGUUGAAUGGAGUUUAUCAUG | -3.76
GGAUCUUCUCGAUCUAUCAAAAAAGACAAAUCUGCCACAUAGCUUGAGAGCGUCUUCGAAUGCAGAGGCGGCAGCCUUCGGUGGCGCGAUAGCGCCAAGGUUCUCAACUAUGACACGCAAAACGCGUGCUCCGUCGAGUGGAGUUUAUCAUG | ≤ -4.2
GGAACUUCUCGAUCUAACAAAAAAGACAAAUCUGCCACAAAGCUUGAGAGCAUCUUCGGAUGCAGAGGCGGCAGCCUUCGGUGACGCGAUAGCGCCAACGGUCUCAACUAUGACACGCAAAACGCGUGCUCCGUUGAAUGGAGUUUAUCAUG | -0.65
GGAUCUUCUCGAUGUAACAAAAAAGACAAAUCUGCCACAAAGCUUGAGAGCAUCUUCGGGUGCAGAGGCGGCAGCCUUCGGUGGCGCGAUAGCGCCAACGUUCUCAACUAUGACACGCAAAACGCGUGCUCCGUUGAAUGGAGUUUAUCAUG | -2.34
GGAUCUUCUCGAUCUAACAAAAAAGACAAAUCUGCCACAAAGCUUGAGAGCAUCUUCGGAUGCAGAGGCGGCAGCCUUCGGUGGCGCGAUAGCGCCAACGUUCUCAACUAUGACACGCAAAACGCGUGCUCCGUUGAAUGGAGUAUAUCAUG | 0.192
GGAUCUUCUCGAUCUAACAAAAAAGACAAAUCUGCCACAAGGCUUGAGAGCAACUUCGCAUGCAGAGGCGGCAGCCUUCGGUGGCGCGAUAGCGCCAGCGUCCUCAACUAUGACACGCAAAACGCGUGCUCCAUUGAAUGGAGUUUAUCAUG | ≤ -4.2
GGAUCUUCUCGAUCUAACAAAAAAGACAAAUCUGCCACAAAGCUUGCGAGCAUCUUCGGAUGCAGAGGCGGCAGCCUUCGGUGGUGCGAUAGCGCCAACGUUCUCAACUAUGACACUCAAAACGCGUGCUCCGUUGAAUGGAGUUUAUCAUG | 0.38
GGAUCUUCUCGAUCUAACAAAAAAGACGAAUCUGCCACAAAGCUUGAGAGCAUCUUCGGAUGCAGAGGCGGCAGCCUUCGGUGGCGCGAUAUAGCCAACGUUCUCAACUAUGACACGCAAAACGCGUGCUCCGUUGAAUGGAGUUUAUCAUG | ≤ -4.2
GGAUCUUCUCGAUCUAACAACAAAGACAAAUCUGCCACAAAGCUUGAGAGCAUCUUCGGAUGCAGAGGCGGCAGCCUUCGGUUGCGCGAUAGCGCCAACGUUCUCAACUAUGACAGGCAAAACGCGUGCUCCGUUGAAUGGAGUUUAUCAUG | -0.153
GGAUCUUCUCGAUCUAACAAAAAAGACAAAUCUGCCACAAAGCUUGAGAGCAUCUUCGGAUGCAGAGGCGGCAGCCUUCGGUGGCGCGAUAGCGCGAACGUUCGCAACUAUGACACGCAAAACGCGUGCUCCGUUGAAUGUAGUUUAUCAUG | -1.2
GGAUCUUCUCGAUCUAACAAAAAAGACAAAUCUGCCACAAAGCUUGAGAGCAUCUUCGGAUGCAGAGGCGGCAGCCUUCGGUGGCGCGAUAGCGCGAACGUUCUCAACUAUGACACGCAAAACGCGUGCUCCGUUGAAUGGAAUUUAUCAUG | -2.42
GGAUCUUCUCGAUCUAACAAAAAAGACAAACCUGCCACAAAGCUUGAGCGCAUCUUCGGAUGCAGAGGCGGCAGCCUUCGGUGGCGCGAUAGGGCCAACGUUCUCAACUAUGACACGCAAAACGCGUGCUCCGUGGAAUGGAAUUUAUCAUG | ≤ -4.2
GGAUCUUCUCGAUCUAACAAAAAAGACAAAUCUGCCACAAAGCUUGAGAGCAUCUUCGAAUGCAGAGGCGGCAGCCUUCGGUGGCGCGAUAACGCCAACGUUCUCAACUAUGACACGCAAAACGCGUACUCCGUUGAAUGGAGUUUAUCAUG | -4.02
GGAUGUUCUCGAUCUAACAAAAGAGACAAAUCUGCCACAAAGCUUGAGAGCUUCUUCGGAUGCAGAGGCGGCAGCCUUCGGUGGCGGGAUAGCGCCAAAGUUCUCAACUAUGACACGCAAAACGCGUGCUCCGUUGAAUGGAGUUUAUCAUG | ≤ -4.2
